Experimental data from patent publication US20240317871A1 (IMMUNOMIC THERAPEUTICS, published 2024).

T1: His-tagged human HVEM (human, UniProt Q92956 39-202, limits assumed)
T1 construct: Analyte of the BLI assay, 200 nM in PBS; not shown: His tag
T1 sequence (looked up): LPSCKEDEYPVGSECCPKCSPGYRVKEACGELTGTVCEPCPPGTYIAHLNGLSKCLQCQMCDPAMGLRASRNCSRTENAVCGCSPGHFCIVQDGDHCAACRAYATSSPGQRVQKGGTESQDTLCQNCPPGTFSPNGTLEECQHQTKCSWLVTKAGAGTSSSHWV

T2: human HVEM (human, UniProt Q92956 39-202, limits assumed)
T2 sequence (looked up): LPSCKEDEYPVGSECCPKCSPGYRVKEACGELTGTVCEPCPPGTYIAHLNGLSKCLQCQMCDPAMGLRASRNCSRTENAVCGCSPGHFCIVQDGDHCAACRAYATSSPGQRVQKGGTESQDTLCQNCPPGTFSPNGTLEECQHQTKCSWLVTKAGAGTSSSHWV

T3: murine HVEM (murine, UniProt Q80WM9 39-206, limits assumed)
T3 construct: also called Mouse
T3 sequence (looked up): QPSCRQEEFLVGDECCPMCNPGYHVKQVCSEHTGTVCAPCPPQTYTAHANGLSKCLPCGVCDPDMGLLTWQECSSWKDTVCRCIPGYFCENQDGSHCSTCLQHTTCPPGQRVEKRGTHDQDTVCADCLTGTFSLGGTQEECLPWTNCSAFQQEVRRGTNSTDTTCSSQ

T4: cynomolgus monkey HVEM (cynomolgus monkey, UniProt A0A2K5W0R1 39-203)
T4 sequence: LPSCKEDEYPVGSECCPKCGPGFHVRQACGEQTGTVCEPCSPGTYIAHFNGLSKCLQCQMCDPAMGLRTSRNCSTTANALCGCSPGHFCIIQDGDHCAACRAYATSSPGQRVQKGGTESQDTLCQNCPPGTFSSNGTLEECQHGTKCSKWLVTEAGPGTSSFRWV

T5: Human HEVM recombinant protein (Sino Biological, 10334-H02H) (human, UniProt Q92956 39-202)
T5 construct: construct known only by catalogue number; also called HVEM; human HVEM
T5 sequence (looked up): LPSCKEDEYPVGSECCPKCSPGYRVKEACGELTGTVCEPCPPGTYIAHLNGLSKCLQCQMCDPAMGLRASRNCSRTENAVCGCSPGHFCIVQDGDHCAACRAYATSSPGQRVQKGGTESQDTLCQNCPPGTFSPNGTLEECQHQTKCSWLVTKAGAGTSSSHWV


Columns and labels:
His-tagged human HVEM = target: T1, His-tagged human HVEM; assay: BLI OctetRed96, mAb captured, 200 nM His-HVEM
Experimental: Binding of antibodies to HVEM may also be determined by bio-layer interferometry (BLI) on an OctetRed96@ system (Sartorius). (See http://www.fortebio.com/bli_technology.html for general description of a BLI assay.) For this experiment, murine anti-human HVEM antibodies were captured from culture supernatant using anti-mouse IgG Fc capture and immobilized to dip and read biosensors. Sensors were then dipped into a solution of 200 nM His-tagged human HVEM in phosphate-buffered saline (PBS). Probes were dipped into PBS assay buffer and the dissociation rate (koff) was measured. The association rate (kₒₙ) and affinity (KD) were determined by curve fitting analysis.

human HVEM = target: T2, human HVEM; assay: ELISA
murine HVEM = target: T3, murine HVEM; assay: ELISA
cynomolgus monkey HVEM = target: T4, cynomolgus monkey HVEM; assay: ELISA
[1] = target: T5, Human HEVM recombinant protein (Sino …); assay: competition ELISA, competitor BTLA-His
Experimental: The competitive activity of HVEM antibody to BTLA or LIGHT was evaluated with ELISA-based competitive assay. Briefly Human HEVM recombinant protein (Sino Biological, 10334-H02H, 4 ug/ml, 100 ul/well) was coated to ELISA plate (Thermo Scientific, 469949, 4C overnight). A pre-mixture of HVEM antibody clone with seral dilution and 400 nM BTLA-His (R&D systems, 9235-BT-050) or LIGHT-His (SinoBiological, 10386-H07H) recombinant protein was made and added to the ELISA plate after blocking with 3% BSA (200 ul/well, RT 2 Hr) for 1 Hr at RT. The serial dilutions of HVEM antibody clone involve 7 different concentrations, with a 3-fold dilution performed start from 100 nM for BTLA or 325 nM for LIGHT competitive assay. The concentration was the final concentration. Plate was washed with PBST; diluted HRP-anti-His (Biolegend, 652504, 1:1000) with PBS containing 5% FBS was added 100 ul per well for 1 Hr at RT. TMB substrate (KPL, 52-00-00) 100 ul per well after washing and incubate at room temperature for 15 minutes; then stop the development by adding 100 ul stop solution (KPL, 50-85-06). Plate was read at 450 nm. The IC50 was calculated using GraphPad Prism software (GraphPad Software, Inc. San Diego, CA, USA).

Binder	Kd (His-tagged human HVEM) [nM]	koff (His-tagged human HVEM) [s⁻¹]	kon (His-tagged human HVEM) [M⁻¹ s⁻¹]	ELISA signal (human HVEM)	ELISA signal (murine HVEM)	ELISA signal (cynomolgus monkey HVEM)	IC50 [1] [nM]
Ab_073 (H5S20-9A9A) (antibody, V domains shown, also called Ab_73) VH: EVQLQQSGADLVKPGASVKLSCTASGFNIRDTYMHWVNQRPEQGLEWIGRIDPANGNTKYAPKFQGRATITADTSSNTAYLHLSSLTSEDTAVYYCAGYGNSPWFAYWGQGTLVTVSA VL: DVLMTQTPLSLPVNLGDQASISCRSSQSIVHSNGNTYLEWYLQKPGQSPKLLIYKVSNRFSGVPDRFSGSGSGTDFTLKISRVEAEDLGVYYCFQGSHVPLTFGAGTKLELK	370	0.109	294000	3.24	0.045	0.062	3.2
Ab_074 (H5S20-52A21A) (antibody, V domains shown, also called Ab_74) VH: EVQLQQSGAELVKPGASVKLSCTASGFNIKDTYIHWLNQRPEQGLEWIGRIDPANGKTKFAPKFQDKATITADTSSNTAYLQLSSLTSEDTAVYYCAGYGNSPWFAYWGQGTLVTVSA VL: DVLMTQTPLSLPVSLGDQASISCRSSQSIVHSNGNTYLEWYLQKPGQSPKLLIYKVSNRVSGVPDRFSGSGSGTDFTLKISRVEAEDLGVYYCFQGSHVPLTFGAGTKLELK	48.2	0.0272	565000	3.26	0.044	0.06	1.6
Ab_079 (H5S20-22A18A) (antibody, V domains shown, also called Ab_79) VH: EVQLQQSGAELVKPGASVKLSCTASGFNIKDTYMHWVKQRPEQGLEWIGRIDPANGNTKYAPKFQGKATITADTSSNTAYLQLSSLTSEDTAVYYCARSFGNYFDYWGQGTTLTVSS VL: NIVLTQSPASLAVSLGQRATISCRASESVDSYGNSFMHWYQQKPGQPPKLLIYLASNLESGVPARFSGSGSRTDFTLTIDPVEADDAATYYCQQNYADPWTFGGGTKLEIK	13.9	0.0216	1.56e+06	2.97	0.054	0.062	11
Ab_083 (H5S20-49A39A) (antibody, V domains shown, also called Ab_153; Ab_83) VH: EVQLQQSGAELVKPGASVKLSCTASGFNIKDTYVHWVKERPEQGLEWIGRIDPANDNTKYAPKFQVKATITADTSSNTAYLQLSSLTSEDNAVYYCAPYGNYPAWFAYWGQGTLVTVSA VL: DVLMTQTPLSLPVSLGDQVSISCRSSQNIVHSNGNTYLEWYLQKPGQSPKLLIYKVSNRFSGVPDRFSGSGSGTDFTLKISRVEAEDLGVYYCFQGSHVPLTFGAGTKLELK	65.8	0.0167	254000	3.19	0.043	0.06	1.9
Ab_009 (H5S14-8A7A) (antibody, V domains shown, also called Ab_9) VH: EVKLVESGGDLVKPGGSLKLSCAASGFTFSNYAMSWVRQTPEKRLEWVASISTGGTTSYYSDSVKGRFTISRDNARNILYLQMSSLRSEDTAMYYCARGGGGNYFWFTYWGQGTLVTISA VL: DVVMTQTPLSLPVSLGDQASISCRSSQSLVHSNGNTYLHWYLQKPGQSPKLLIYKVSNRFSGVPDRFSGSGSGTDFTLKISRVEAEDLGVYFCSQSTHVPFTFGSGTKLEIK	35.1	0.0175	497000	3.11	0.047	1.88	2.1
Ab_087 (H5S20-59A43A) (antibody, V domains shown, also called Ab_87) VH: EVKLVESGGGLVKPGGSLKLSCAASGFTFSSYAMSWVRQTPEKRLEWVASISSGSSTYYPDSVKGRFTISRDNARNILYLQMSSLRSEDTAMYYCAKGRGYGNYLYAMDYWGQGTSVTVSS VL: DIVMTQSQKFMSTSVGDRVSVTCKASQNVGTNVAWYQQKPGQSPKALIYSASYRYSGVPDRFTGSGSGTDFTLTISNVQSEDLAEYFCQQYNSYPLTFGGGTKLEIK	1570	0.323	206000	3.22	0.045	0.069	5.2
Ab_010 (H5S14-10A9A) (antibody, V domains shown, also called Ab_10) VH: not shown VL: DIQMTQSPASLSASVGETVTITCRASENIYSYLAWYQQKQGKSPQLLVYNAKTLAEGVPSRFSGSGSGTQFSLKINSLQPEDFGSYYCQHHYGTMYTFGGGTKLEIK	7210	1.15	159000	2.68	0.044	0.068	11.3
Ab_025 (H5S15-2A2A) (antibody, V domains shown, also called Ab_25) VH: EVQLQQSGAELVKPGASVKLSCTASGFNIKDTYMHWVKQRPEQGLEWIGRIDPANDNTKYDPKFQGKATITADTSSNTAYLQLSSLTSEDTAVYYCARVYYAMDYWGQGTSVTVSS VL: DIQMTQSPASLSASVGETVTITCRASENIYSYLAWYQQKQGKSPQLLVYNAKTLAEGVPSRFSGSGSGTQFSLKINSLQPEDFGSYYCQHHYGTYTFGGGTKLEIK	11.6	0.00596	515000	3.01	0.045	3.16	10
Ab_026 (H5S15-11A3B) (antibody, V domains shown, also called Ab_26) VH: EVQLQQSGADLVKPGASVKLSCTASGFNIKDTYMHWVKQRPEQGLEWIGRIAPANGRTKYDPKFQGKATITADTSSNTAYLQLSSLTSEDTAVYYCANYYASSYDWFAYWGQGTLVTVSA VL: DVLMTQTPLSLTVSLGHQASISCRSSQSIVHSNGNTYLEWYLQKPGQSPKLLIYKVSNRFSGVPDRFSGSGSGTDFTLKISRVEAEDLGVYYCFQGSHVPLTFGAGTKLELK	11.1	0.00864	776000	3.1	0.043	0.088	2.4
Ab_027 (H5S15-17A16A) (antibody, V domains shown, also called Ab_27) VH: EVQLQQSGAELVKPGASVKLSCTASGFNIKDTYMHWVKQRPEQGLEWIGRIAPANGKTKFDPKFQGKATITADTSSNTAYLQLSSLTSEDTAVYYCANYYGRSNDWFVYWGQGTLVTVSA VL: DVLMTQTPLSLPVSLGDQASISCRSSQSIVHSNGITYLEWYLQKPGQSPELLIYKVSNRFSGVPDRFSGSGSGTDFTLKISRVEAEDLGVYYCFQGSHVPLTFGAGTKLELK	2.68	0.00171	639000	3.13	0.043	0.064	2.2
Ab_028 (H5S15-33A29A) (antibody, V domains shown, also called Ab_28) VH: QVQLKQSGPGLVQPSQSLSITCTVSGFSLTTYGVHWVRQSPGKGLEWLGVIWSGGNTDYNPAFISRLSISKDNSKSQVFFKMNTLQASDTAIYYCARRGYNKGYAMDYWGQGTSFTVSS VL: EIVLTQSPALMTASPGEKVTITCSVSSTISSRNLHWYQQKSEASPKPWIYGTSNLASGVPVRFSGSGSGTSYSLTISSMEAEDAATYYCQQWNSYPLTFGSGTKLEIK	6.9	0.00266	386000	3.16	0.05	2.19	1.4
Ab_029 (H5S15-14A14B) (antibody, V domains shown, also called Ab_29) VH: EVQLQQSGPELVKPGASVKMSCKASGYTFTSYVMHWVKQKPGQGLEWIGYINPYNDDTNCNEKFKGKATLTSDKSSSTAYMELSRLTSEDSAVYYCAKARGYGSTFYYSMDYWGQGTSVTVSS VL: DIVMTQSQKFMSTSVGDRVSVTCKASQNVGTNVAWYQQRPGQSPKSLIYSASYRYSGVPDRFTGSGSGTDFTLTISNVQSEDLADYFCQQYNSYPYTFGGGAKLEIK	47	0.0403	858000	3.33	0.045	0.068	1.3
